Values of other authors, collected in paper PMC10810742.

Molecular target: Ubiquitin (Homo sapiens) (UniProt P0CG47)

Sequence of CteC (Q7NY09 whole entry): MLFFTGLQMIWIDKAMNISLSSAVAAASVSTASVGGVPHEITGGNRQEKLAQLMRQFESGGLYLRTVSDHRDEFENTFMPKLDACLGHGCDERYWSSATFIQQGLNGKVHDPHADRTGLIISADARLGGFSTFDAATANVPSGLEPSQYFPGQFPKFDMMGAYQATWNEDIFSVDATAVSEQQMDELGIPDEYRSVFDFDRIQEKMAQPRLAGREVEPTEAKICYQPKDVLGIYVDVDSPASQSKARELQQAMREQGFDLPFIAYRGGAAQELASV

Substance: CteC (from UniProt Q7NY09)
- Kd: 78.7 µM
